Results as given in paper PMC6888645.
Blank lines part the entries; values can stand above or below the substance they belong to.

Assays:
[1] = target: DD-N-CAP1, human CAP1 helical folded domain with the coiled coil (a.a. 1-29) replaced by the dimerization domain 2L4HC2_23 (human); test: AUC; sedimentation velocity (SV-AUC), 50 µM protein, 20 °C, 50,000 rpm, absorbance at 280 nm, 20 mM Tris-HCl pH 8.0, SEDFIT c(S) model; buffer (Tris-HCl vs PBS) and salt did not affect the oligomerization state
[2] = target: DD-N-CAP1, human CAP1 helical folded domain with the coiled coil (a.a. 1-29) replaced by the dimerization domain 2L4HC2_23 (human); test: native MS; 100-300 pmole protein (as monomer), online buffer exchange to 200 mM ammonium acetate pH 6.8, Orbitrap EMR, deconvolution with UniDec
[3] = target: DD-N-CAP2, human CAP2 helical folded domain with the coiled coil (a.a. 1-29) replaced by the dimerization domain 2L4HC2_23 (human); test: AUC; sedimentation velocity (SV-AUC), 50 µM protein, 20 °C, 50,000 rpm, absorbance at 280 nm, 20 mM Tris-HCl pH 8.0, SEDFIT c(S) model; buffer (Tris-HCl vs PBS) and salt did not affect the oligomerization state
[4] = target: DD-N-CAP2, human CAP2 helical folded domain with the coiled coil (a.a. 1-29) replaced by the dimerization domain 2L4HC2_23 (human); test: native MS; 100-300 pmole protein (as monomer), online buffer exchange to 200 mM ammonium acetate pH 6.8, Orbitrap EMR, deconvolution with UniDec
[5] = target: TD-N-CAP1, human CAP1 helical folded domain with the coiled coil (a.a. 1-29) replaced by the trimerization domain 2L6HC3_6 (human); test: AUC; sedimentation velocity (SV-AUC), 50 µM protein, 20 °C, 50,000 rpm, absorbance at 280 nm, 20 mM Tris-HCl pH 8.0, SEDFIT c(S) model; buffer (Tris-HCl vs PBS) and salt did not affect the oligomerization state
[6] = target: TD-N-CAP1, human CAP1 helical folded domain with the coiled coil (a.a. 1-29) replaced by the trimerization domain 2L6HC3_6 (human); test: native MS; 100-300 pmole protein (as monomer), online buffer exchange to 200 mM ammonium acetate pH 6.8, Orbitrap EMR, deconvolution with UniDec
[7] = target: TD-N-CAP2, human CAP2 helical folded domain with the coiled coil (a.a. 1-29) replaced by the trimerization domain 2L6HC3_6 (human); test: AUC; sedimentation velocity (SV-AUC), 50 µM protein, 20 °C, 50,000 rpm, absorbance at 280 nm, 20 mM Tris-HCl pH 8.0, SEDFIT c(S) model; buffer (Tris-HCl vs PBS) and salt did not affect the oligomerization state
[8] = target: TD-N-CAP2, human CAP2 helical folded domain with the coiled coil (a.a. 1-29) replaced by the trimerization domain 2L6HC3_6 (human); test: native MS; 100-300 pmole protein (as monomer), online buffer exchange to 200 mM ammonium acetate pH 6.8, Orbitrap EMR, deconvolution with UniDec

stoichiometry N [1]: 2
stoichiometry N [2]: 2
Substance: DD-N-CAP1, human CAP1 helical folded domain with the coiled coil (a.a. 1-29) replaced by the dimerization domain 2L4HC2_23

stoichiometry N [3]: 2
stoichiometry N [4]: 2
Substance: DD-N-CAP2, human CAP2 helical folded domain with the coiled coil (a.a. 1-29) replaced by the dimerization domain 2L4HC2_23

stoichiometry N [5]: 3
stoichiometry N [6]: 3
Substance: TD-N-CAP1, human CAP1 helical folded domain with the coiled coil (a.a. 1-29) replaced by the trimerization domain 2L6HC3_6

stoichiometry N [7]: 3
stoichiometry N [8]: 3
Substance: TD-N-CAP2, human CAP2 helical folded domain with the coiled coil (a.a. 1-29) replaced by the trimerization domain 2L6HC3_6
